Data taken from publication doi:10.1101/2025.06.16.659917, “MTBP allosterically activates Cdk8-CycC kinase activity” (bioRxiv, 2025).

Biological target: T1, 6xHis-3xFLAG-Cdk8 wt (recombinant, full-length) (human, UniProt P49336 1-464)
T1 construct: Cdk8, human, full-length; Co-expressed with CycC, alone or together with MTBP(C) or Med12(N100); source: Sf9/Hi5 insect cells (baculovirus), purified (Ni-NTA, dialysis); not shown: 6xHis, N-terminal, kept
Assay: pull-down; co-expression in Sf9/Hi5 insect cells and co-purification on Ni-NTA agarose via the N-terminal 6His-tag on Cdk8; 20 mM HEPES pH 8.0, 150 mM NaCl, 2% glycerol, 0.1% Triton X-100, 0.5 mM TCEP, 20 mM imidazole; 4°C
Conditions: partners not purified

T1 sequence (P49336 whole entry): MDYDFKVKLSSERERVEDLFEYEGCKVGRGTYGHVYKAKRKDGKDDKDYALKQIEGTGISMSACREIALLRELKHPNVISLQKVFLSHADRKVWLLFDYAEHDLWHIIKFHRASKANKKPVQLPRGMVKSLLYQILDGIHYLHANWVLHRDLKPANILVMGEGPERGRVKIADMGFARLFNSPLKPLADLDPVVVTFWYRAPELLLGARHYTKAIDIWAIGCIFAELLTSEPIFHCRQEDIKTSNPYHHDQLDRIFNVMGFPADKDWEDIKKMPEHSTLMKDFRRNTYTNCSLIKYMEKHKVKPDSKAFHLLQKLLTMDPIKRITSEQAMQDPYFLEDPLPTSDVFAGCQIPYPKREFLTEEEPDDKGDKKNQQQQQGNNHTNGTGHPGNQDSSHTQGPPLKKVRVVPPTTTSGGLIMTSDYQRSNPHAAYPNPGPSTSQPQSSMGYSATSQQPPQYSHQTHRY

B1: Med12(N100) (recombinant Med12 residues 1-100) (domain or fragment, human, UniProt Q93074 1-100, looked up)
chain: MAAFGILSYEHRPLKRPRLGPPDVYPQDPKQKEDELTALNVKQGFNNQPAVSGDEHGSAKNVSFNPAKISSNFSSIIAEKLRCNTLPDTGRRKPQVNQKD
notes: Med12, human, residues 1-100; also called Med12-1-100; Med12(1-100); source: Sf9/Hi5 insect cells (baculovirus), co-expressed with Cdk8 and CycC, purified (Ni-NTA via Cdk8); also purified alone
B1: binds.
